We go through three molecules from US8530168B2, “Fusion protein comprising a Caspase domain and a nuclear hormone receptor binding domain and methods and uses thereof” (Helmholtz Zentrum Munich Deutsches Forschungszentrum fuer …, priority 2007, dated 2013).

Series [1] concerns MEF5/N9 cells. Briefly: Transient cotransfection of ER(T2) fusion expression vectors with β-galactosidase reporter; β-galactosidase activity in lysates. Type of series: cell-based, mouse. The note with it: 10^−8 M 4-OH-tamoxifen, 48 h; for relative β-galactosidase activity in presence of 4-OH-tamoxifen compared to the negative control: relative to Cre-ER(T2) without 4-OH-tamoxifen. As for the experimental part: The transformed mouse embryonic fibroblast cell line MEF5/N9 (Schwenk et al., Nucleic Acids Research, 26(6) 1427-1432 (1998)) was obtained from Michel Aguet (University of Zurich, Switzerland). The cells were grown in DMEM medium (Life Technologies) supplemented with 2 mM […] and 10% fetal calf serum at 37° C., 5% CO2 in humid atmosphere and passaged upon trypsinization. One day before transient transfection 4·10^4 cells were plated into a 24-well plate (Falcon). For the transient transfection of MEF5/N9 cells with plasmids, each well received into 500 μl of medium a total amount of 150 ng or 200 ng supercoiled plasmid DNA complexed before with the FuGene6 transfection reagent (Roche Diagnostics GmbH, Mannheim, Germany) according to the manufacturer's protocol. Each 150 ng or 200 ng DNA preparation (FIG. 2 sample 1 to 11) contained 100 ng of the β-Galactosidase expression vector pCMV-β-gal-pA (pCMVβ, Clontech, FIG. 1G, SEQ ID NO: 56), and 100 ng of the fusion ER(T2) expression vectors to be tested (FIG. 2 sample 3-7, 10-11) and the control plasmids (FIG. 2 sample 1-3), except for the samples with the plasmids pCAG-Casp9full-ER(T2)-bpA (FIG. 2 sample 8) and pCAG-Casp9trunc-ER(T2)-bpA (FIG. 2 sample 9), respectively, that received 50 ng of the test vector. For each sample to be tested four individual wells were transfected. Five hours after the addition of the DNA preparations each well received additional 500 μl of growth medium. The following day, the medium of two wells of each sample was replaced by fresh medium. The other two wells received medium containing 10^−8 M 4-hydroxy-tamoxifen (Sigma). 48 hours after induction with 4-OH-tamoxifen, the cells of each well were lysed with 200 μl lysate reagent supplemented with protease inhibitors (Roche Diagnostics GmbH). The lysates were centrifuged and 50 μl were used to determine the β-galactosidase activities using the β-galactosidase reporter gene assay (Roche Diagnostics GmbH) according to the manufacturer's protocol in a microplate luminometer (Berthold Detection Systems GmbH). The mean value and standard deviation of the samples was calculated from the β-galactosidase RLU values obtained from the two transfected wells of each sample. The relative β-galactosidase activity was obtained by comparison to the negative control (pCAG-Cre-ER(T2)-bpA) without 4-OH-tamoxifen.
To investigate the cell death effect of the different ER(T2) fusion constructs quantitatively, we performed transient cotransfections of the ER(T2) fusion protein expression vectors together with a fixed amount of a reporter plasmid coding for β-galactosidase in MEF5/N9 fibroblast cells. Transfected cells were treated 12 hours after transfection with 4-OH-tamoxifen at a concentration of 10^−8 M. Following 48 hours of 4-OH-tamoxifen induction, the cells from the various samples were lysed and the activity of β-galactosidase in the lysates was determined by a chemiluminescence assay and expressed in “Relative Light Units” (RLU) (FIG. 2). As positive controls for 4-OH-tamoxifen-inducible cell death, we prepared samples transfected with the constructs pCAG-HAFas-ER(T2) or pCAG-MFas-ER(T2) together with the reporter plasmid and treatment with 4-OH-tamoxifen. As negative control for this assay served samples which received the reporter plasmid together with the expression vector pCAG-Cre-ER(T2) and that were treated with 4-OH-tamoxifen.
To determine the relative activity of the tested ER(T2) fusion constructs inducing apoptosis in the presence of 4-OH-tamoxifen, the RLU values of β-galactosidase activity were divided individually for each sample by the RLU value obtained from the sample which received the plasmid pCAG-Cre-ER(T2) but was not treated with 4-OH-tamoxifen (defined as negative control). The relative activity of the tested Caspase- or bax-ER(T2) fusion proteins was then compared to the negative control for 4-OH-tamoxifen-dependent cell death defined as an activity of 1.

Series [2] relates to MEF5/N9 cells. The description is as above. The series is classed as cell-based, mouse. Particulars: no 4-OH-tamoxifen; transient transfection 50 or 100 ng vector; relative to Cre-ER(T2) without 4-OH-tamoxifen.
A further series has as its system HeLa cells. As to the kind of experiment: Transient cotransfection with β-galactosidase reporter into HeLa cells. Type of series: cell-based, human. The note with it: 10^−8 M 4-OH-tamoxifen, Cre-ER(T2) as reference, range given jointly for HeLa and Pac2. As for the experimental part:
(§1) Results are shown as mean values of triplicate samples with standard deviation. (b) Transient cotransfection of a β-galactosidase reporter with a Cre-ER(T2), myrCasp8-ER(T2), or Casp9-ER(T2) expression plasmid into murine M5/N9 (black columns), human HeLa (grey columns) or zebrafish Pac2 (open columns) cells. 12 h following transfection, cells were cultured for 36 h with 4-OH-tamoxifen at 10^−8 M and the activity of β-galactosidase in cell lysates was determined. Values obtained from transfections of the Cre-ER(T2) vector were defined as reference. Results are shown as mean values of triplicate samples with standard deviation.
Transient transfections into M5/N9 and HeLa cells were performed with FuGene transfection reagent (Roche) following the manufacturer's instructions. Briefly, semiconfluent cultures in a 24-well plate were transfected in triplicate with 112 ng of the β-galactosidase expression vector CMVβ(Invitrogen) and the same amount of pCAG-Cre-ER(T2), pCAG-Casp8-ER(T2) or pCAG-Casp9-ER(T2) plasmid DNA. After 12 h 4-OH-tamoxifen was added at a concentration of 10^−8 M and the cultures were lysed at 48 h. Cell lysis and the measurement of β-galactosidase activity by chemiluminescence were performed with the β-galactosidase reporter gene assay (Roche) using a Centro LB960 plate luminometer (Berthold). […]

Another series concerns Pac2 cells. As to the kind of experiment: Transient cotransfection with β-galactosidase reporter into Pac2 cells. Type of series: cell-based, zebrafish. Particulars: 10^−8 M 4-OH-tamoxifen, Cre-ER(T2) as reference, range given jointly for HeLa and Pac2. On the procedure: as §1
PAC2 zebrafish fibroblasts were grown in Leibowitz's L15—with L-Glutamine medium supplemented with 1% Non-essential Amino Acids, 1% Penicillin/Streptomycin and 10% fetal calf serum (all Gibco) at 28° C. 3×10^6 Cells were transiently transfected with the plasmids CMVβ together with CAG-CreER(T2), CAG-myrCasp8ER(T2) or CAG-Casp9ER(T2) (500 ng each) using nanofectin transfection reagent (PAA). 24 hrs after transfection the medium was replaced and conditioned with 10^−8 M 4-OH-tamoxifen. Before lysis, the cells were incubated for another 24 hrs at 28°. […]

B1: myrCasp8-ER(T2): murine Caspase-8 domain with N-terminal myristoylation motif fused to ER(T2) ligand binding domain, SEQ ID NO: 23 (protein)
chain: MGSSKSKPKDPSQRSESRTSDKVYQMKNKPRGYCLIINNHDFSKAREDITQLRKMKDRKGTDCDKEALSKTFKELHFEIVSYDDCTANEIHEILEGYQSADHKNKDCFICCILSHGDKGVVYGTDGKEASIYDLTSYFTGSKCPSLSGKPKIFFIQACQGSNFQKGVPDEAGFEQQNHTLEVDSSSHKNYIPDEADFLLGMATVKNCVSYRDPVNGTWYIQSLCQSLRERCPQGDDILSILTGVNYDVSNKDDRRNKGKQMPQPTFTLRKKLFFPPLEPSAGDMRAANLWPSPLMIKRSKKNSLALSLTADQMVSALLDAEPPILYSEYDPTRPFSEASMMGLLTNLADRELVHMINWAKRVPGFVDLTLHDQVHLLECAWLEILMIGLVWRSMEHPVKLLFAPNLLLDRNQGKCVEGMVEIFDMLLATSSRFRMMNLQGEEFVCLKSIILLNSGVYTFLSSTLKSLEEKDHIHRVLDKITDTLIHLMAKAGLTLQQQHQRLAQLLLILSHIRHMSNKGMEHLYSMKCKNVVPLYDLLLEAADAHRLHAPTSRGGASVEETDQSHLATAGSTSSHSLQKYYITGEAEGFPATA
modifications: N-terminal myristoylation motif; fusion protein myrCasp8-ER(T2)
For the molecule B1, in the series with MEF5/N9 cells [1], the “relative β-galactosidase activity in presence of 4-OH-tamoxifen compared to the negative control” value worked out at 0.1%. In the series on MEF5/N9 cells [2], the “basal toxicity: relative β-galactosidase activity compared to the negative control in absence of 4-OH-tamoxifen” value came to 6%. Moreover, the “reduction of β-Galactosidase activity in presence of 4-OHT” value in the series on HeLa cells and in the series on Pac2 cells was 95-99% throughout.

B2: Casp8-ER(T2): fusion of murine Caspase-8 domain to the ER(T2) ligand binding domain, SEQ ID NO: 20 (protein)
chain: MSESRTSDKVYQMKNKPRGYCLIINNHDFSKAREDITQLRKMKDRKGTDCDKEALSKTFKELHFEIVSYDDCTANEIHEILEGYQSADHKNKDCFICCILSHGDKGVVYGTDGKEASIYDLTSYFTGSKCPSLSGKPKIFFIQACQGSNFQKGVPDEAGFEQQNHTLEVDSSSHKNYIPDEADFLLGMATVKNCVSYRDPVNGTWYIQSLCQSLRERCPQGDDILSILTGVNYDVSNKDDRRNKGKQMPQPTFTLRKKLFFPPLEPSAGDMRAANLWPSPLMIKRSKKNSLALSLTADQMVSALLDAEPPILYSEYDPTRPFSEASMMGLLTNLADRELVHMINWAKRVPGFVDLTLHDQVHLLECAWLEILMIGLVWRSMEHPVKLLFAPNLLLDRNQGKCVEGMVEIFDMLLATSSRFRMMNLQGEEFVCLKSIILLNSGVYTFLSSTLKSLEEKDHIHRVLDKITDTLIHLMAKAGLTLQQQHQRLAQLLLILSHIRHMSNKGMEHLYSMKCKNVVPLYDLLLEAADAHRLHAPTSRGGASVEETDQSHLATAGSTSSHSLQKYYITGEAEGFPATA
modifications: fusion protein Casp8-ER(T2)
Consider B2, for which, in the series with MEF5/N9 cells [1], the “relative β-galactosidase activity in presence of 4-OH-tamoxifen compared to the negative control” value is given as 3%. Besides, the “basal toxicity: relative β-galactosidase activity compared to the negative control in absence of 4-OH-tamoxifen” value in the series with MEF5/N9 cells [2] stood at 17%.

B3: Cre-ER(T2): fusion of Cre recombinase to ER(T2) ligand binding domain, negative control, SEQ ID NO: 5 (protein)
chain: MSNLLTVHQNLPALPVDATSDEVRKNLMDMFRDRQAFSEHTWKMLLSVCRSWAAWCKLNNRKWFPAEPEDVRDYLLYLQARGLAVKTIQQHLGQLNMLHRRSGLPRPSDSNAVSLVMRRIRKENVDAGERAKQALAFERTDFDQVRSLMENSDRCQDIRNLAFLGIAYNTLLRIAEIARIRVKDISRTDGGRMLIHIGRTKTLVSTAGVEKALSLGVTKLVERWISVSGVADDPNNYLFCRVRKNGVAAPSATSQLSTRALEGIFEATHRLIYGAKDDSGQRYLAWSGHSARVGAARDMARAGVSIPEIMQAGGWTNVNIVMNYIRNLDSETGAMVRLLEDGDLEPSAGDMRAANLWPSPLMIKRSKKNSLALSLTADQMVSALLDAEPPILYSEYDPTRPFSEASMMGLLTNLADRELVHMINWAKRVPGFVDLTLHDQVHLLECAWLEILMIGLVWRSMEHPVKLLFAPNLLLDRNQGKCVEGMVEIFDMLLATSSRFRMMNLQGEEFVCLKSIILLNSGVYTFLSSTLKSLEEKDHIHRVLDKITDTLIHLMAKAGLTLQQQHQRLAQLLLILSHIRHMSNKGMEHLYSMKCKNVVPLYDLLLEAADAHRLHAPTSRGGASVEETDQSHLATAGSTSSHSLQKYYITGEAEGFPATA
modifications: fusion protein Cre-ER(T2)
With B3, the “4-OH-tamoxifen-dependent activity / toxicity in transient transfection (in words)” value in the series on MEF5/N9 cells [1] is “Neither the expression of the negative control Cre-ER(T2) alone nor the combined treatment with 4-OH-tamoxifen at the concentration of 10^−8 M displayed toxic side effects”.
